These results are taken from PMC4318798 (Nature structural & molecular biology, 2015).

Series [1] concerns the molecule itself. Nature of the series: SEC-MALS.
Series [2] deals with the molecule itself. Description: SEC-MALS. The source holds these as a separate data set. Background: SEC sorts molecules by how far they enter the pores of the column.
The series “crystal structure” concerns the molecule itself. Description: crystal structure.
Series [3] deals with the molecule itself. Description: SEC-MALS. This is another data set of the same source.
In the next series the target is T1, Ctp1 151-294 (Schizosaccharomyces pombe, UniProt O74986 151-294).
T1 sequence: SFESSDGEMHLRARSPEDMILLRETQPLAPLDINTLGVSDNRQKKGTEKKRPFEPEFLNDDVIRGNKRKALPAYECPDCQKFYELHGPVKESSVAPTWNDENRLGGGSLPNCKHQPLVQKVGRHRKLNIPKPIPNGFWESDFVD
Nature of the series: EMSA. On the technique in general: In EMSA bound probe runs differently from free probe, usually more slowly.

The target of another series is T2, Ctp1 1-150 (Schizosaccharomyces pombe, UniProt O74986 1-150).
T2 sequence: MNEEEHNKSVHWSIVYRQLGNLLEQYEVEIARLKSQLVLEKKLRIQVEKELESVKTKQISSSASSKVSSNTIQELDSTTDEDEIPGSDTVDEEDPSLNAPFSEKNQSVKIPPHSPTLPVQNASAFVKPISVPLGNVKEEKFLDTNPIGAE
Description: EMSA.

For a further series, the target named is T3, Ctp1 61-294 (Schizosaccharomyces pombe, UniProt O74986 61-294).
T3 sequence: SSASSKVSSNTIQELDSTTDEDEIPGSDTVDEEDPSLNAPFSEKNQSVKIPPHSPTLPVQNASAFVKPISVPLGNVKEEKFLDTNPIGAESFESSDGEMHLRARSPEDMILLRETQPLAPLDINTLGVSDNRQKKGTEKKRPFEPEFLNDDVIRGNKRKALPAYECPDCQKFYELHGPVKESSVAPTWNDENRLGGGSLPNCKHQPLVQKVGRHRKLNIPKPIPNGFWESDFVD
Description: EMSA.

A further series concerns the target T4, Ctp1 K219A (Schizosaccharomyces pombe, UniProt O74986 1-294, K219A).
T4 sequence: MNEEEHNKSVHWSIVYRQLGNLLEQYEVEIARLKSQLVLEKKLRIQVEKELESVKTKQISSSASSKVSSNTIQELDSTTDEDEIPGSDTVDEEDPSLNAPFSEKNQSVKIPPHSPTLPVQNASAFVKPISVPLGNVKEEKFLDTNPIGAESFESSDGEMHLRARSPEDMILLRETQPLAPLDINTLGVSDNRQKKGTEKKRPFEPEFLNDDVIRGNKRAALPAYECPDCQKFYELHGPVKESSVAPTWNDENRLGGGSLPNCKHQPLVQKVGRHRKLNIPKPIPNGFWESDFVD
Description: EMSA.

The target in a further series is T5, Ctp1 K276A (Schizosaccharomyces pombe, UniProt O74986 1-294, K276A).
T5 sequence: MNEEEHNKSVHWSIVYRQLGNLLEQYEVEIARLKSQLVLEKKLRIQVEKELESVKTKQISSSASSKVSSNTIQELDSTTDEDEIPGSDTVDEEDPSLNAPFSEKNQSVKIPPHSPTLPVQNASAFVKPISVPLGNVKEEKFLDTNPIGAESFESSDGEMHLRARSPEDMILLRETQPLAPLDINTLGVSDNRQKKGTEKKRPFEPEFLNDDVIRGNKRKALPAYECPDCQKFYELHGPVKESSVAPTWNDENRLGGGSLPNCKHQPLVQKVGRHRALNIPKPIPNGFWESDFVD
Nature of the series: EMSA.

The target in another series is T6, Ctp1 K231A (Schizosaccharomyces pombe, UniProt O74986 1-294, K231A).
T6 sequence: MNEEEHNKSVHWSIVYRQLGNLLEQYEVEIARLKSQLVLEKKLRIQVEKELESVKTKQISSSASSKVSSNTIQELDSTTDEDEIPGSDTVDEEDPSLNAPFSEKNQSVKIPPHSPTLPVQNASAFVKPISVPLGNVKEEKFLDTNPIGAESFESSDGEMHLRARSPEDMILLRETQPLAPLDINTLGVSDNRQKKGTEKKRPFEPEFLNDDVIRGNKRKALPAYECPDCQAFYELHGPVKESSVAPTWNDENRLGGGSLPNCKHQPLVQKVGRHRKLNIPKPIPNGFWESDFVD
Nature of the series: EMSA.

A further series has as its target T7, Ctp1 R273A (Schizosaccharomyces pombe, UniProt O74986 1-294, R273A).
T7 sequence: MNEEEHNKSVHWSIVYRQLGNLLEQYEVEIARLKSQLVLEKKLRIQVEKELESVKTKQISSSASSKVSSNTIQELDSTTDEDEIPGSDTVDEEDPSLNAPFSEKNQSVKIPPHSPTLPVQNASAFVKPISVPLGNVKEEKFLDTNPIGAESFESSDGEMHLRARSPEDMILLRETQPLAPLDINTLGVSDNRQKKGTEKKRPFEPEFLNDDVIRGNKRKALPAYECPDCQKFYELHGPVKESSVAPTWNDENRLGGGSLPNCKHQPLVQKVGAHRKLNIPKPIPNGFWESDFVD
Description: EMSA.

Another series has as its target T8, Ctp1 R275A (Schizosaccharomyces pombe, UniProt O74986 1-294, R275A).
T8 sequence: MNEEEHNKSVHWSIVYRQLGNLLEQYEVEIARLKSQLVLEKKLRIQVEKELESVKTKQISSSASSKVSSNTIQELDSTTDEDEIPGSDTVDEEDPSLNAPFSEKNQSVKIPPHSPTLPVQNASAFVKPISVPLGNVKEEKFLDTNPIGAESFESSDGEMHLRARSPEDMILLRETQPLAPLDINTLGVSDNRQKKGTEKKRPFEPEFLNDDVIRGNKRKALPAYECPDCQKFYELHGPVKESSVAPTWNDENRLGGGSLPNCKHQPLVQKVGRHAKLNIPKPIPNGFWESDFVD
Description: EMSA.

The next series deals with T9, Ctp1 WT (Schizosaccharomyces pombe, UniProt O74986 1-294).
T9 sequence: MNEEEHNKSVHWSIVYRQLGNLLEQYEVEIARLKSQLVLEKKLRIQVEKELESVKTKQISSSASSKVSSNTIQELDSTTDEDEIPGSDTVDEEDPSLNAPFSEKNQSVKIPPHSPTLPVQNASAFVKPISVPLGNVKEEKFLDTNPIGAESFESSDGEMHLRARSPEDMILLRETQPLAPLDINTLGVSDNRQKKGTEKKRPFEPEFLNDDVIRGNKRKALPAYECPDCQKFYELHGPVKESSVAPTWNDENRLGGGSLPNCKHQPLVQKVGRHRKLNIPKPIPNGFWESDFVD
Description: EMSA.

Read-outs that look alike come from different tables or passages of the source.

B1: Ctp1_(1–60) (domain or fragment, S. pombe, UniProt O74986 1-60, looked up)
chain: MNEEEHNKSVHWSIVYRQLGNLLEQYEVEIARLKSQLVLEKKLRIQVEKELESVKTKQIS
As a reminder, the stoichiometry N is a count of units in the complex or per binding partner. For B1, in “SEC-MALS [1]”, the “stoichiometry N” value was 4.

B2: MBP-Ctp1_(1–60) (domain or fragment, S. pombe, UniProt O74986 1-60, looked up)
chain: MNEEEHNKSVHWSIVYRQLGNLLEQYEVEIARLKSQLVLEKKLRIQVEKELESVKTKQIS
Consider B2, for which, in “SEC-MALS [2]”, the “stoichiometry N” value amounted to 4.

B3: Ctp1_(5–60)-L51M (domain or fragment, S. pombe, UniProt O74986 5-60, looked up)
chain: EHNKSVHWSIVYRQLGNLLEQYEVEIARLKSQLVLEKKLRIQVEKEMESVKTKQIS
In the case of B3, the binding result in “crystal structure” was “binds”.

B4: full-length S. pombe Ctp1 (natural protein, UniProt O74986 1-294, looked up)
chain: MNEEEHNKSVHWSIVYRQLGNLLEQYEVEIARLKSQLVLEKKLRIQVEKELESVKTKQISSSASSKVSSNTIQELDSTTDEDEIPGSDTVDEEDPSLNAPFSEKNQSVKIPPHSPTLPVQNASAFVKPISVPLGNVKEEKFLDTNPIGAESFESSDGEMHLRARSPEDMILLRETQPLAPLDINTLGVSDNRQKKGTEKKRPFEPEFLNDDVIRGNKRKALPAYECPDCQKFYELHGPVKESSVAPTWNDENRLGGGSLPNCKHQPLVQKVGRHRKLNIPKPIPNGFWESDFVD
In the case of B4, in “SEC-MALS [1]”, the “stoichiometry N” value amounted to 4.

B5: Ctp1 R32A K41A (natural protein, S. pombe, UniProt O74986 1-294, looked up)
chain: MNEEEHNKSVHWSIVYRQLGNLLEQYEVEIAALKSQLVLEAKLRIQVEKELESVKTKQISSSASSKVSSNTIQELDSTTDEDEIPGSDTVDEEDPSLNAPFSEKNQSVKIPPHSPTLPVQNASAFVKPISVPLGNVKEEKFLDTNPIGAESFESSDGEMHLRARSPEDMILLRETQPLAPLDINTLGVSDNRQKKGTEKKRPFEPEFLNDDVIRGNKRKALPAYECPDCQKFYELHGPVKESSVAPTWNDENRLGGGSLPNCKHQPLVQKVGRHRKLNIPKPIPNGFWESDFVD
On to B5, for which the binding result in the series “SEC-MALS [3]” was “binds”.

B6: MBP-Ctp1_(15–60) (domain or fragment, S. pombe, UniProt O74986 15-60, looked up)
chain: VYRQLGNLLEQYEVEIARLKSQLVLEKKLRIQVEKELESVKTKQIS
In the case of B6, the “stoichiometry N” value in the series “SEC-MALS [2]” amounted to 2.

B7: 39 bp dsDNA (39bpf/39bpr) (dsDNA)
DNA 1: CAGAGTCATAATATGCAGGTGCAGGTTATTCATGCTCGG
DNA 2: CCGAGCATGAATAACCTGCACCTGCATATTATGACTCTG
In the case of B7, the binding result with Ctp1 151-294 and with Ctp1 1-150 was “no binding” each time.

B8: fork (ssDNA/splay) (mixed)
DNA 1: GCAGGAGGTGGCGTCGGGTGGACGGGTGGATTGAAATTTAGGCTGGCACGGTCT
DNA 2: AGACCGTGCCAGCCTAAATTTCAATCCAAGGTCTCGACTAACTCTAGTCGTTGT
By Kd is commonly meant a measure of binding affinity in units of concentration. Low readings indicate tighter binding, high ones weaker binding. In the series with Ctp1 61-294, B8 gave an equilibrium dissociation constant (Kd) of 1000 nM.

B9: 54 bp dsDNA (dsDNA)
DNA 1: GCAGGAGGTGGCGTCGGGTGGACGGGTGGATTGAAATTTAGGCTGGCACGGTCT
DNA 2: AGACCGTGCCAGCCTAAATTTCAATCCACCCGTCCACCCGACGCCACCTCCTGC
On to B9, for which the binding result in the series with Ctp1 K219A, with Ctp1 K276A, with Ctp1 K231A, with Ctp1 R273A and with Ctp1 R275A was “no binding” each time.

B10: ssDNA 54 nt (ssDNA)
DNA: GCAGGAGGTGGCGTCGGGTGGACGGGTGGATTGAAATTTAGGCTGGCACGGTCT
As to B10, the binding result with Ctp1 WT was “binds”.
